Laboratory results: patent US20190031754A1

Each binder was assayed against hFc-hROR2-T245 (recombinant human ROR2 extracellular domain fused to human Fc) (human) (UniProt Q01974) (assay: SPR (Biacore X100), hFc-hROR2 captured by anti-human Fc on CM5, Fab as analyte, 1:1 Langmuir model).
hFc-hROR2-T245 (recombinant human ROR2 extracellular domain fused to human Fc) (human), sequence (Q01974 55-394 limits assumed, form in doubt): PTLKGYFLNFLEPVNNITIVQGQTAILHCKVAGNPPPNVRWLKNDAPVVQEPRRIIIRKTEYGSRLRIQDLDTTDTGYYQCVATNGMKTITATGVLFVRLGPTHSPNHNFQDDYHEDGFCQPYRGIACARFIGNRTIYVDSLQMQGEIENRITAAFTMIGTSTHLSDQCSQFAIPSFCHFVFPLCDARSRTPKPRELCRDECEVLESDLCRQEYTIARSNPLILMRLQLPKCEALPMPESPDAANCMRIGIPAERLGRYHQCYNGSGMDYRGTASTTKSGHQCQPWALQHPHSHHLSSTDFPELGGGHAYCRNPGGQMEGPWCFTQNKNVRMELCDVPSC

koff [s⁻¹] | kon [M⁻¹ s⁻¹] | Kd [nM] | Binder
0.000286 | 27100 | – | chimeric rabbit/human Fab ERR2-308 (Fab, V domains shown) VH: QEQLEESGGRLVTPGTPLTLTCAVSGFSLSNYAMGWVRQAPGEGLEYIGWISAGGGAYYASWVNGRFTISKTSSTVDLKMTSLTAADTATYFCARGASNGCDLWGPGTLVTVSS VL: DPMLTQTPSSVSAVVGGTVTIKCQASQSITSWLSWYQQKPGQPPKLLIYGASHLASGVPSRFKGSGYGTEFTLTISGIQREDAATYYCLGGYSNSDIVFGGGTELEIL
0.00242 | 29800 | – | chimeric rabbit/human Fab ERR2-TOP2 (Fab, V domains shown) VH: QSLEESGGRLVTPGTPLTLTCTVSGFSLSSYAISWVRQAPGKGLEWIGTIGTRGDTAYANWAKGRFTISKTSTTVTLKMTSPTTEDTATYFCARELVAGGGSDLWGPGTLVTVSS VL: DVVMTQTPSSVSAVVGGTVTIKCQASQSITSWLSWYQQKPGQPPKLLIYGASHLASGVPSRFKGSGYGTEFTLTISGIQREDAATYYCLGGYLSASYQTAFGGGTKVEIK
0.0173 | 49800 | – | chimeric rabbit/human Fab XBR2-416 (Fab, V domains shown) VH: QEQLEESGGRLVTPGTPLTLTCTVSGFSLSSYWMSWVRQAPGKGLEWIGTITPGGNTDYATWAKARFTVSKTSTTVDLKITSPTTEDTATYFCARGIGGAADLWGPGTLVTISS VL: AQVLTQTPSSTSAAVGGTVTIKCQASQSISSSDLSWYQQKPGQPPKLLIYATSYLASGVPSRFKGSGSGTEYTLTISGVQREDAATYYCLGGYPNTSYRSAFGGGTKVEIK
0.154 | 37000 | 4150 | chimeric rabbit/human Fab XBR2-TOP72 (Fab, V domains shown) VH: QEQLEESGGRLVTPGTPLTLTCTVSGIDLSSNAMSWVRQAPGKGLEYVGFINGGGGVHYASWARGRFTISKTSTTVDLKITSPTTEDTATYFCARAGTTYYTSFNLWGPGTLVTISS VL: QFVLTQSPSASAALGSSAKLTCTLSSAHKTYTIAWYQQQQGEAPRLLMMLRTDGSYTKGTGVPDRFSGSSSGADRYLIISSVQADDAAGYYCGADYSGGYVFGGGTQLTVTG
0.0178 | 3.34e+06 | – | chimeric rabbit/human Fab ERR2-316 (Fab, V domains shown) VH: QKQLVESGGRLVTPGGSLTLTCTVSGFSLSKYGVSWVRQAPGSGLEYIGTIGGSGTSYYASWAKSRSTITRNTNLNTVTLKMTSLTAADTATYFCARYFGWNTGFDIWGPGTLVTISS VL: DPVMTQTPSSVSEPVGGTVTIKCQASQSISNALAWYQQKPGQPPKRLIYKASTPASGVPSRFKGSRSGTEYTLTISGVQREDAATYYCLGFSVVSNDGWAFGAGTNVEIK
0.0467 | 328000 | – | chimeric rabbit/human Fab XBR2-TOP9 (Fab, V domains shown) VH: QSVEESRGRLVTPGTPLTLICTVSGIDLSSYNIQWVRQAPGKGLEYIGYINTDGSAYYASWAKGRFTISKTSTTVDLKITSPTTEDTATYFCARGGYASGFNLWGPGTLVTISS VL: DVVMTQTPSSTSAAVGGTVTIKCQASQNIGPWLSWYQQKPGQPPKQLIYAASTLASGVPSRFKGSGSGTDYTLTISGVQREDAATYYCLGWHSWSDDGWAFGAGTNVEIK
0.00544 | 104000 | 52.5 | chimeric rabbit/human Fab ERR2-302 (Fab, V domains shown) VH: QKQLVESGGGLVKPGGSLTLTCTVSGFSLSSYAIGWVRQAPGNGLEWIGIINSYGSTYYASWAKSRSTITRNTNLNTVTLKMTSLTAADTATYFCARSPYGYVSAWGYHRLDLWGQGTLVTISS VL: SYELTQLPSVSVSLGQTARITCGGASIGSKVVHWYQQKPGLAPGLLIYDDDERPSGVPDRFSGSNSGDTATLTISGAQAGDEAEYYCQLWDGSDVVFGGGTQLTVTG
0.00546 | 95600 | 57.2 | chimeric rabbit/human Fab XBR2-327 (Fab, V domains shown) VH: QEQLKESGGGLFKPTDTLTLTCTVSGFSLSSGAISWVRQAPGNGLEYIGFVNSLGNTYYANWAKSRSAITRNTNENTVTLKMTSLAAADTATYFCAKDYGNWAFDPWGPGTLVTVSS VL: DPVLTQTPSSVSAAVGGTVAINCQASQSISSYLSWYQQKPGQPPKLLIYGASKLASGVPSRFSGSGSGTEYTLTISGVQREDAATYYCLGGYASASYRTAFGGGTKLEIK
0.0132 | 83500 | – | chimeric rabbit/human Fab ERR2-317 (Fab, V domains shown) VH: QSLEESGGRLVTPGTPLTLTCTASGFSLSSYDMIWVRQAPGKGLEYIGIINAGGNTYYASWAKGRFTISRTSTTVDLKMTSPTTEDTATYFCARGSSWTGDIWGPGTLVTVSS VL: DPVLTQTPSSTSAAVGGTVTIKCQASQSISSYLSWYQQKPGQPPKQLIYAASTLASGVPSRFKGSGSGTEYTLTISGVQREDAATYYCLGGYASASYQTAFGGGTKVEIK
0.108 | 47300 | 2280 | chimeric rabbit/human Fab XBR2-433 (Fab, V domains shown) VH: QSVKESEGGLFKPTDTLTLTCTVSGFSLSTYGVSWVRQAPGNGLEWIGAIGSSGSANYASWAKDRSTITRNTNLNTVTLKMTSLTAADTATYFCARDGYYSSGWGPYFNIWGPGTLVTISS VL: SFVLTQPASVQVNLGQTVSLTCTADTLSRSYASWYQQKPGQAPVLLIYRDTSRPSGVPDRFSGSSSGNTATLTISGAQAGDEADYYCATSGGSGSNPQYVFGGGTQLTVTG
0.00851 | 197000 | 43.3 | chimeric rabbit/human Fab ERR2-TOP35 (Fab, V domains shown) VH: QSVKESEGGLFKPMDTLTLTCTVSGFSLNTYGVSWVRQAPGNGLEWIGAVGSSGATNYASWAKSRSTITRNTNENTVTLKMTSLTAADTATYFCARDGYYSSGWGPYFSIWGPGTLVTVSS VL: SFVLTQPASVQVNLGQTVSLTCTAETLRSSYASWYQQKPGQAPVLLIYRDTSRPSGVPDRFSGSSSGNTATLTISGAQAGDEADYYCATSDGSGSRYYVFGGGTQLTVTG
